Data as given in patent US20230119539A1, “TRACELESS LINKERS AND PROTEIN-CONJUGATES THEREOF” (Regeneron Pharmaceuticals, Inc., priority 2019, published 2023).

B1: H1H21234N-N297Q-L1-PII-1 (antibody, V domains shown)
VH: QVQLQESGPGLVKPSETLSLTCTVTGGSISRNYWSWIRQPPGKGLEWIGYIYYSGSIDYNPSLKSRVTISVDTSKNQFSLKLSSMTAADTAVYYCARDRWNWKYGMDVWGQGTTVIVSS
VL: EIVLTQSPGTLSLSPGERATLSCRASQTVRNNYLAWYHQKPGQAPRLLIYGASSRATGIPDRFSGSGSGTDFTLTISRLEPEDFTVYYCHQYGNSPWTFGQGTKMEIKR
modifications: heavy-chain constant region (not part of this entry): N297Q (EU); linker-payload L1-PII-1 (DIBAC-suc-PEG4-vcPAB-PII-1, payload budesonide) clicked onto azido-PEG3-amine on glutamines; DAR 4
B2: H1H21234N-N297Q-L4-PIII-1 (antibody, V domains shown)
VH: B1 VH
VL: B1 VL
modifications: heavy-chain constant region (not part of this entry): N297Q (EU); linker-payload L4-PIII-1 (DIBAC-suc-GGF-PIII-1) clicked onto azido-PEG3-amine on glutamines; DAR 4
B3: H1H21234N-N297Q-L5-PIII-1 (antibody, V domains shown)
VH: B1 VH
VL: B1 VL
modifications: heavy-chain constant region (not part of this entry): N297Q (EU); linker-payload L5-PIII-1 (DIBAC-suc-SGGG-PIII-1) clicked onto azido-PEG3-amine on glutamines; DAR 4
B4: H1H21234N-N297Q-L2-PIII-1 (antibody, V domains shown)
VH: B1 VH
VL: B1 VL
modifications: heavy-chain constant region (not part of this entry): N297Q (EU); linker-payload L2-PIII-1 (DIBAC-suc-PEG4-Glu-vcPAB-PIII-1) clicked onto azido-PEG3-amine on glutamines; DAR 4
B5: H1H21234N-N297Q-L8-PII-1 (antibody, V domains shown)
VH: B1 VH
VL: B1 VL
modifications: heavy-chain constant region (not part of this entry): N297Q (EU); linker-payload L8-PII-1 (COT-PEG4-EvcPAB-G-NHCH2-Bud) conjugated as in Example 5; four DAR ADC
B6: H1H21234N-N297Q-L6-PII-9 (antibody, V domains shown)
VH: B1 VH
VL: B1 VL
modifications: heavy-chain constant region (not part of this entry): N297Q (EU); linker-payload L6-PII-9 (DIBAC-suc-PEG4-PII-9, payload budesonide) conjugated as in Example 5; four DAR ADC
B7: H1H21234N-N297Q-L13-PII-1 (antibody, V domains shown)
VH: B1 VH
VL: B1 VL
modifications: heavy-chain constant region (not part of this entry): N297Q (EU); linker-payload L13-PII-1 (COT-GGGG-NHCH2-Bud) conjugated as in Example 5; four DAR ADC
B8: H1H21234N-N297Q-L14-PII-1 (antibody, V domains shown)
VH: B1 VH
VL: B1 VL
modifications: heavy-chain constant region (not part of this entry): N297Q (EU); linker-payload L14-PII-1 (DIBAC-GGFG-NHCH2-Bud) conjugated as in Example 5; four DAR ADC

biological target: T1, human macrophage scavenger receptor 1 (MSR1) (human, UniProt P21757 1-451); experiment: cell-based or functional assay; settings: not given
T1 sequence (looked up): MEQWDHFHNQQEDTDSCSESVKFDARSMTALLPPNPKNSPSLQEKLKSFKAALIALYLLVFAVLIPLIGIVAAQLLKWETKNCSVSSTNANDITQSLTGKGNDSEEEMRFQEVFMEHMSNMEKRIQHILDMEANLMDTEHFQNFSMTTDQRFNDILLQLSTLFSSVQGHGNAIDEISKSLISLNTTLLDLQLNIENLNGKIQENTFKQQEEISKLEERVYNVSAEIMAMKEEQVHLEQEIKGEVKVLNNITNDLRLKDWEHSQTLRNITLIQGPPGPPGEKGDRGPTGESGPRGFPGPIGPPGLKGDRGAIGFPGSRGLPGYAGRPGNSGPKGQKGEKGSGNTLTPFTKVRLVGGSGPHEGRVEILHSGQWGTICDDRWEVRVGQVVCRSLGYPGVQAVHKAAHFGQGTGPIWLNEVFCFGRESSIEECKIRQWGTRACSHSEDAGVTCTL

First: B1
Second: B2
The “EC50, GR luciferase reporter activity in HEK293/GRLuc/MSR1 cells” value (“EC50 … in HEK293/GRLuc/MSR1 cells” below) of the first is 5.2-fold higher: 609 pM for the first, 117 pM for the second.

B3 and B4 are within 1.5-fold of each other in “EC50 … in HEK293/GRLuc/MSR1 cells” value: 138 pM for the first, 184 pM for the second.

First: B1
Second: B2
The “S/N (highest RLU / RLU in untreated wells), HEK293/GRLuc/MSR1 cells” value of the first is lower: 128 for the first, 148 for the second.

Going from B3 to B4, the “S/N (highest RLU / RLU in untreated wells), HEK293/GRLuc/MSR1 cells” value falls from 125 to 96.4.

biological target: T1, human macrophage scavenger receptor 1 …; experiment: cell-based or functional assay; settings: not given; remark: another data set of the same source

B1 and B5 are within 1.5-fold of each other in “EC50 … in HEK293/GRLuc/MSR1 cells” value: 840 pM for the first, 899 pM for the second.

Compared with B6, B7 is 1.7-fold lower in “EC50 … in HEK293/GRLuc/MSR1 cells” value: 3960 pM for the first, 2330 pM for the second.

For B8, the “EC50 … in HEK293/GRLuc/MSR1 cells” value was 636 pM.

First: B1
Second: B5
The “S/N, HEK293/GRLuc/MSR1 cells” value of the first is lower: 222 for the first, 280 for the second.

Compared with B6, B7 is higher in “S/N, HEK293/GRLuc/MSR1 cells” value: 150 for the first, 226 for the second.

In the case of B8, the “S/N, HEK293/GRLuc/MSR1 cells” value is reported as 120.

biological target: T2, GR (Homo sapiens, UniProt P04150); experiment: GR luciferase reporter assay in HEK293/GRLuc cells; format: cell-based; settings: Table 8, ncADCs, 48 hours
T2 construct: host or cells: HEK293 (HEK293/GRLuc; HEK293/GRLuc/MSR1 additionally transduced with human MSR1)
T2 sequence (P04150 524-758 limits assumed): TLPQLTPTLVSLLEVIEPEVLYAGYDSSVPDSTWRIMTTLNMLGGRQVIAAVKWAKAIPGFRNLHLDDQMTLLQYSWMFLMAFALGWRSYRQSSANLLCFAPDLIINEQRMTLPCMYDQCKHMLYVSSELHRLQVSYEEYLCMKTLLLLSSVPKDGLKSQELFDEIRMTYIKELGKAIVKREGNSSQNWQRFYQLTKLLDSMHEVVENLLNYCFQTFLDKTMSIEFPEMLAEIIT
Description: Activity of anti-MSR1 ncADCs were tested using an MSR1 ADC steroid responsive luciferase reporter assay. To generate the assay cell line, HEK293 cells were co-transfected with the pBind-GR (Promega, Cat #E158A) and pGL4.35 [Luc2P/9xGAL4UAS/Hygro] (Promega, Cat #E137A) vectors. The pBind-GR vector expresses a fusion protein consisting of the GR ligand binding and the yeast Gal4DNA-binding domain, which binds to the Gal4 upstream activation sequence (UAS) in the luciferase expression vector, that can induce luciferase expression following GR agonist binding. The cells were selected for at least 2 weeks in G418+hygromycin and the resulting cell line is referred to as HEK293/GRLuc. HEK293/GRLuc cells were then transduced with a human MSR1 lentiviral expression vector and 48 hours later cells were sorted for MSR1 positive cells. The resulting cell line is referred to as HEK293/GRLuc/MSR1.
Three-fold serial dilutions of ncADCs in assay buffer were added to the cells for 48 hours. The last well in the plate served as blank control containing only the assay media and was plotted as a continuation of the 3-fold serial dilution. Luciferase activity was determined using the One-Glo™ reagent (Promega, Cat #E6130). Relative light units (RLUs) were measured on an Envision luminometer (PerkinElmer) and EC50 values were determined using a four-parameter logistic equation over a 10-point dose response curve (GraphPad Prism). The signal to noise (S/N) was determined by taking the ratio of the highest RLU on the dose response curve to the RLU in the untreated wells.
To test the activity of GR agonist payloads disclosed herein, a cell-based GR responsive luciferase reporter assay was developed as described above.
Three-fold serial dilutions of free payloads were prepared in 100% DMSO, transferred to fresh assay media, and added to the cells for 48 hours. […] The last well in the plate served as blank control containing only the assay media and 0.2% DMSO (untreated well) and was plotted as a continuation of the 3-fold serial dilution. Luciferase activity was determined using the One-Glo™ reagent (Promega, Cat #E6130). Relative light units (RLUs) were measured on an Envision luminometer (PerkinElmer) and EC50 values were determined using a four-parameter logistic equation over a 10-point dose response curve (GraphPad Prism). The signal to noise (S/N) was determined by taking the ratio of the highest RLU on the dose response curve to the RLU in the untreated wells.

Compared with B1, B2 is lower in EC50: > 100 nM for the first, 51.4 nM for the second.

B3 and B4 are within 1.5-fold of each other in EC50: 41.7 nM for the first, 52.7 nM for the second.

same assay, conditions: Table 8, ncADCs, highest RLU / RLU of untreated wells

Going from B1 to B2, the S/N rises from 5.4 to 25.5.

Going from B3 to B4, the S/N falls from 13.2 to 6.0.

same assay, conditions: Table 11, ADCs

B1 and B5 cannot be ordered by EC50: > 100 nM for the first, > 100 nM for the second.

B6 and B7 cannot be ordered by EC50: > 100 nM for the first, > 100 nM for the second.

In the case of B8, the EC50 is reported as > 100 nM.

Compared with B1, B5 is lower in S/N: 4.5 for the first, 1.4 for the second.

Going from B6 to B7, the S/N falls from 15.8 to 3.1.

Work on B8 yielded a S/N of 16.8.

system: not listed separately; experiment: Solubility of quenched linker-payloads; settings: Table 3c, linker-payloads quenched with taurine-PEG4-azide or CD-N3

For CCCC1O[C@@H]2C[C@H]3[C@@H]4C[C@H](F)C5=CC(=O)C=C[C@]5(C)[C@@]4(F)[C@@H](O)C[C@]3(C)[C@]2(C(=O)COCNC(=O)CNC(=O)CNC(=O)OCc2ccc(NC(=O)[C@H](CCCNC(N)=O)NC(=O)[C@@H](NC(=O)CCOCCOCCOCCOCCNC(=O)CCC(=O)N3Cc4ccccc4-c4c(nnn4CCOCCOCCOCCOCCC(=O)NCCS(=O)(=O)O)-c4ccccc43)C(C)C)cc2)O1 (stereo partly shown) [Q1L1-PIII-4], the “Solubility” value was >1 mg/mL.
